Measured values from publication PMC10397247.
Blank lines part the entries; values can stand above or below the binder they belong to.

Assays:
4H3631-bA = target: T1, 4H3631-bA; test: two-hybrid library CCNG1;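 further: natural log of median RNA to DNA barcode read ratio; higher means stronger binding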
T1 chain: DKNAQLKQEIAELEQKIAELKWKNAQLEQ

4H3638-bA = target: T2, 4H3638-bA; test: two-hybrid library CCNG1;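 further: natural log of median RNA to DNA barcode read ratio; higher means stronger binding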
T2 chain: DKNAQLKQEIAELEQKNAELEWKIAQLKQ

4H3817-bA = target: T3, 4H3817-bA; test: two-hybrid library CCNG1;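 further: natural log of median RNA to DNA barcode read ratio; higher means stronger binding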
T3 chain: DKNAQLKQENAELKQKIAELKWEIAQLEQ

4H3974-bA = target: T4, 4H3974-bA; test: two-hybrid library CCNG1;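 further: natural log of median RNA to DNA barcode read ratio; higher means stronger binding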
T4 chain: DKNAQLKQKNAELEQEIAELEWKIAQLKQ

4H570-bA = target: T5, 4H570-bA; test: two-hybrid library CCNG1
T5 chain: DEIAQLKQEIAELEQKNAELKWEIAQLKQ

4H584-bA = target: T6, 4H584-bA; test: two-hybrid library CCNG1
T6 chain: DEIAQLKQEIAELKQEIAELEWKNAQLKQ

4H619-bA = target: T7, 4H619-bA; test: two-hybrid library CCNG1
T7 chain: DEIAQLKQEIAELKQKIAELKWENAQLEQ

4H850-bA = target: T8, 4H850-bA; test: two-hybrid library CCNG1
T8 chain: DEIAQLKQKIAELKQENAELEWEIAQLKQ

4H906-bA = target: T9, 4H906-bA; test: two-hybrid library CCNG1
T9 chain: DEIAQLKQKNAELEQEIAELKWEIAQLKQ

4H3638-bN = target: T10, 4H3638-bN; test: two-hybrid library CCNG1
T10 chain: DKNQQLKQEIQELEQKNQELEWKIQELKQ

4H3817-bN = target: T11, 4H3817-bN; test: two-hybrid library CCNG1
T11 chain: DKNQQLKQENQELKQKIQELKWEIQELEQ

4H3974-bN = target: T12, 4H3974-bN; test: two-hybrid library CCNG1
T12 chain: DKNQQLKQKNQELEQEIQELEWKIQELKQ

4H570-bN = target: T13, 4H570-bN; test: two-hybrid library CCNG1
T13 chain: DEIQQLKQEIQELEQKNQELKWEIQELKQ

4H584-bN = target: T14, 4H584-bN; test: two-hybrid library CCNG1
T14 chain: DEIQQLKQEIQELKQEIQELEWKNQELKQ

4H619-bN = target: T15, 4H619-bN; test: two-hybrid library CCNG1
T15 chain: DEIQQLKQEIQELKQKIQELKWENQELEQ

4H850-bN = target: T16, 4H850-bN; test: two-hybrid library CCNG1
T16 chain: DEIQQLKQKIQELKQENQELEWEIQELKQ

4H906-bN = target: T17, 4H906-bN; test: two-hybrid library CCNG1
T17 chain: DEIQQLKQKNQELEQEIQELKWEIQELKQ

4H953-bH = target: T18, 4H953-bH; test: two-hybrid library CCNG1
T18 chain: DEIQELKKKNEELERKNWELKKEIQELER

4H3497-bN = target: T19, 4H3497-bN; test: two-hybrid library CCNG1
T19 chain: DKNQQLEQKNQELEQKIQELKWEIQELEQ

4H3613-bN = target: T20, 4H3613-bN; test: two-hybrid library CCNG1
T20 chain: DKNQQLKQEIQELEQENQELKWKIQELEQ

4H3628-bN = target: T21, 4H3628-bN; test: two-hybrid library CCNG1
T21 chain: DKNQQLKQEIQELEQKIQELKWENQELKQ

4H3926-bN = target: T22, 4H3926-bN; test: two-hybrid library CCNG1
T22 chain: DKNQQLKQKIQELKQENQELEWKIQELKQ

4H591-bN = target: T23, 4H591-bN; test: two-hybrid library CCNG1
T23 chain: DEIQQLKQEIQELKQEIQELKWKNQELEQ

4H626-bN = target: T24, 4H626-bN; test: two-hybrid library CCNG1
T24 chain: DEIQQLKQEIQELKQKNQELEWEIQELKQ

4H3858-bA = target: T25, 4H3858-bA; test: two-hybrid library CCNG1
T25 chain: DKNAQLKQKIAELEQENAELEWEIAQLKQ

O7-AA = target: T26, O7-AA; test: two-hybrid library CCmax
T26 chain: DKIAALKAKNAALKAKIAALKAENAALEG

O8-AA = target: T27, O8-AA; test: two-hybrid library CCmax; details: mean of both orientations
T27 chain: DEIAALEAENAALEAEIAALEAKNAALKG

P10-AA = target: T28, P10-AA; test: two-hybrid library CCmax; details: mean of both orientations
T28 chain: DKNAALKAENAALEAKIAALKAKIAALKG

P9-AA = target: T29, P9-AA; test: two-hybrid library CCmax; details: mean of both orientations
T29 chain: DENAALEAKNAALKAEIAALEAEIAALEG

4H3613-bA = target: T30, 4H3613-bA; test: two-hybrid library CCNG1
T30 chain: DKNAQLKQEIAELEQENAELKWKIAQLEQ

4H3628-bA = target: T31, 4H3628-bA; test: two-hybrid library CCNG1
T31 chain: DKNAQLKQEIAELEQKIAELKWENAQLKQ

4H3926-bA = target: T32, 4H3926-bA; test: two-hybrid library CCNG1
T32 chain: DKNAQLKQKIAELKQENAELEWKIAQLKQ

4H591-bA = target: T33, 4H591-bA; test: two-hybrid library CCNG1
T33 chain: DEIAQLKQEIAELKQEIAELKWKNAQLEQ

4H626-bA = target: T34, 4H626-bA; test: two-hybrid library CCNG1
T34 chain: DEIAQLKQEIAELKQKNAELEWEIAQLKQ

4H278-AA = target: T35, 4H278-AA; test: two-hybrid library CCmax
T35 chain: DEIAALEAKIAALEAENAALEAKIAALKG

4H2873-AA = target: T36, 4H2873-AA; test: two-hybrid library CCmax; details: mean of both orientations
T36 chain: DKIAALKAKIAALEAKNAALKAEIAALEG

4H2985-AA = target: T37, 4H2985-AA; test: two-hybrid library CCmax; details: mean of both orientations
T37 chain: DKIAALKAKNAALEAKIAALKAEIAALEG

4H3134-AA = target: T38, 4H3134-AA; test: two-hybrid library CCmax; details: mean of both orientations
T38 chain: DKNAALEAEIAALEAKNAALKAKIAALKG

4H3409-AA = target: T39, 4H3409-AA; test: two-hybrid library CCmax; details: mean of both orientations
T39 chain: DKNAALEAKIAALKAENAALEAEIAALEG

4H3625-AA = target: T40, 4H3625-AA; test: two-hybrid library CCmax; details: mean of both orientations
T40 chain: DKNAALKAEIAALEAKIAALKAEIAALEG

4H390-AA = target: T41, 4H390-AA; test: two-hybrid library CCmax; details: mean of both orientations
T41 chain: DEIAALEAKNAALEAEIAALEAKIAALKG

4H3940-AA = target: T42, 4H3940-AA; test: two-hybrid library CCmax; details: mean of both orientations
T42 chain: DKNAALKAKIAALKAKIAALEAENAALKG

4H510-AA = target: T43, 4H510-AA; test: two-hybrid library CCmax; details: mean of both orientations
T43 chain: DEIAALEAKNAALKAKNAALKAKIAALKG

4H775-AA = target: T44, 4H775-AA; test: two-hybrid library CCmax
T44 chain: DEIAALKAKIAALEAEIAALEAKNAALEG

4H816-AA = target: T45, 4H816-AA; test: two-hybrid library CCmax; details: mean of both orientations
T45 chain: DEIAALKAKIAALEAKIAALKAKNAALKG

4H87-AA = target: T46, 4H87-AA; test: two-hybrid library CCmax; details: mean of both orientations
T46 chain: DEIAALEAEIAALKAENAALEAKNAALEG

P6SC1 = target: T47, P6SC1; test: two-hybrid library CC1
T47 chain: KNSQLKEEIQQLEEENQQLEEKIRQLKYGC

P6SC2 = target: T48, P6SC2; test: two-hybrid library CC1; details: mean of both orientations
T48 chain: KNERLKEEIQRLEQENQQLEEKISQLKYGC

P6mS = target: T49, P6mS; test: two-hybrid library CC1; details: mean of both orientations
T49 chain: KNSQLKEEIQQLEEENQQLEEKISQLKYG

P7 = target: T50, P7; test: two-hybrid library CC1; details: mean of both orientations
T50 chain: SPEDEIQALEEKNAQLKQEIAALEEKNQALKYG

P7mS = target: T51, P7mS; test: two-hybrid library CC1; details: mean of both orientations
T51 chain: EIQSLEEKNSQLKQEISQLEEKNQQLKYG

P8 = target: T52, P8; test: two-hybrid library CC1; details: mean of both orientations
T52 chain: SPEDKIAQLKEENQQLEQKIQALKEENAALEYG

P8mS = target: T53, P8mS; test: two-hybrid library CC1; details: mean of both orientations
T53 chain: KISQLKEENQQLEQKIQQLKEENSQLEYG

P9 = target: T54, P9; test: two-hybrid library CC1; details: mean of both orientations
T54 chain: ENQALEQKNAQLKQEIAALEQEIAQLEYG

B3: 4H3497-bN (peptide)
chain: DKNQQLEQKNQELEQKIQELKWEIQELEQ
interaction score (4H3497-bN): -1.39
interaction score (4H3613-bN): -1.36
interaction score (4H3628-bN): -0.414
interaction score (4H3926-bN): -1.9
interaction score (4H591-bN): -0.818
interaction score (4H626-bN): -2.23
interaction score (4H906-bN): -0.915

B6: 4H3613-bA (peptide)
chain: DKNAQLKQEIAELEQENAELKWKIAQLEQ
interaction score (4H3613-bA): -0.128
interaction score (4H3628-bA): -0.292
interaction score (4H3817-bA): -0.898
interaction score (4H3858-bA): -0.117
interaction score (4H3926-bA): 2.15
interaction score (4H3974-bA): -0.83
interaction score (4H570-bA): -0.148
interaction score (4H591-bA): -0.523
interaction score (4H626-bA): -0.846
interaction score (4H850-bA): 0.586
interaction score (4H906-bA): -0.971

B7: 4H278-AA (peptide)
chain: DEIAALEAKIAALEAENAALEAKIAALKG
interaction score (4H278-AA): 1.38
interaction score (4H2873-AA): 1.66
interaction score (4H2985-AA): 1.94
interaction score (4H3134-AA): 1.9
interaction score (4H3409-AA): 0.702
interaction score (4H3625-AA): 1.32
interaction score (4H390-AA): 1.6
interaction score (4H3940-AA): 0.936
interaction score (4H510-AA): 1.09
interaction score (4H775-AA): -1.16
interaction score (4H816-AA): 0.427
interaction score (4H87-AA): -1.44

B8: P6SC1 (peptide)
chain: T47 chain
interaction score (P6SC1): -2.56
interaction score (P6SC2): -2.43
interaction score (P6mS): -2.87
interaction score (P7): -0.456
interaction score (P7mS): -2.22
interaction score (P8): -2.12
interaction score (P8mS): -2.55
interaction score (P9): -1.54

Second part, the binder after the results:

interaction score (4H3631-bA): 0.816
interaction score (4H3638-bA): -0.00348
interaction score (4H3817-bA): 0.452
interaction score (4H3974-bA): 0.937
interaction score (4H570-bA): -0.919
interaction score (4H584-bA): 0.0123
interaction score (4H619-bA): -0.0328
interaction score (4H850-bA): -0.369
interaction score (4H906-bA): -0.872
B1: 4H3631-bA (peptide)
chain: DKNAQLKQEIAELEQKIAELKWKNAQLEQ

interaction score (4H3638-bN): 0.732
interaction score (4H3817-bN): -0.442
interaction score (4H3974-bN): -0.469
interaction score (4H570-bN): 0.408
interaction score (4H584-bN): 0.234
interaction score (4H619-bN): -1.26
interaction score (4H850-bN): 0.801
interaction score (4H906-bN): -0.17
interaction score (4H953-bH): -2.56
B2: 4H3638-bN (peptide)
chain: DKNQQLKQEIQELEQKNQELEWKIQELKQ

interaction score (4H3817-bA): -0.506
interaction score (4H3858-bA): -1.18
interaction score (4H3974-bA): 1.27
interaction score (4H570-bA): -1.2
interaction score (4H584-bA): -1.24
interaction score (4H619-bA): -1.25
interaction score (4H850-bA): -0.849
interaction score (4H906-bA): -0.916
B4: 4H3817-bA (peptide)
chain: DKNAQLKQENAELKQKIAELKWEIAQLEQ

interaction score (O7-AA): -1.65
interaction score (O8-AA): 2.12
interaction score (P10-AA): -1.18
interaction score (P9-AA): -1.37
B5: O7-AA (peptide)
chain: DKIAALKAKNAALKAKIAALKAENAALEG
